Assay results published in US11130803B2, “Isoform-selective TGFβ1 inhibitors and use thereof” (Scholar Rock, Inc., priority 2018, dated 2021).
Substitutions are numbered along the chain they refer to.

B1: Ab22: monoclonal antibody; VH SEQ ID NO: 130, VL SEQ ID NO: 15 (antibody, V domains shown)
VH: EVQLVESGGGLVQPGGSLRLSCAASGFTFGSFSMNWVRQAPGKGLEWVSYIHSDASTIYYADSVKGRFTISRDNAKNSLYLQMNSLRAEDTAVYYCARGVLDYGDMLDPWGQGTLVTVSS
VL: DIQMTQSPSSLSASVGDRVTITCQASQDITNYLNWYQQKPGKAPKLLIYDASNLETGVPSRFSGSGSGTDFTFTISSLQPEDIATYYCQQADNHPPWTFGGGTKVEIK
B2: Ab24: monoclonal antibody; VH SEQ ID NO: 132, VL SEQ ID NO: 15 (antibody, V domains shown)
VH: B1 VH with G16R, G30S, S33A, N35Y, H52S, S53P
VL: B1 VL
B3: Ab30: monoclonal antibody; VH SEQ ID NO: 138, VL SEQ ID NO: 15 (antibody, V domains shown)
VH: B1 VH with G30S, N35D, H52S, S53P, V100T
VL: B1 VL
B4: Ab32: monoclonal antibody; VH SEQ ID NO: 140, VL SEQ ID NO: 15 (antibody, V domains shown)
VH: B1 VH with G30S, H52S, S53P, D54S, S56D, S78T, L101W, Y103M
VL: B1 VL
B5: Ab31: monoclonal antibody; VH SEQ ID NO: 139, VL SEQ ID NO: 15 (antibody, V domains shown)
VH: B1 VH with G30S, N35D, H52S, S53P, S78T, G99A
VL: B1 VL
B6: Ab29: monoclonal antibody; VH SEQ ID NO: 137, VL SEQ ID NO: 15 (antibody, V domains shown)
VH: B1 VH with G16R, G30S, S33A, H52S, S53P, D62G, A97V, G99A
VL: B1 VL
B7: Ab33: monoclonal antibody; VH SEQ ID NO: 141, VL SEQ ID NO: 15 (antibody, V domains shown)
VH: B1 VH with G30S, H52S, S53P, D54S, S56D, S78T, R98H
VL: B1 VL
B8: Ab26: monoclonal antibody; VH SEQ ID NO: 134, VL SEQ ID NO: 15 (antibody, V domains shown)
VH: B1 VH with G30S, N35D, H52S, S53P, S78T
VL: B1 VL
B9: Ab11: monoclonal antibody; VH SEQ ID NO: 239, VL SEQ ID NO: 241 (antibody, V domains shown)
VH: EVQLLESGGGLVQPGGSLRLSCAASGFTFRNYAMSWVRQAPGKGLEWVSSISGSGGATYYADSVKGRFTISRDNSKNTLYLQMNSLRAEDTAVYYCARVSSGHWDFDYWGQGTLVTVSS
VL: DIQLTQSPSSLSASVGDRVTITCRASQSISSYLNWYQQKPGKAPKLLIYAASNLQSGVPSRFSGSGSGTDFTLTISSLQPEDFATYYCQQTYTVPLTFGGGTKVEIK
B10: Ab12: monoclonal antibody; VH SEQ ID NO: 237, VL SEQ ID NO: 241 (antibody, V domains shown)
VH: B9 VH with E1Q, L5V, L11V, G16R, R30S, N31D, S35V, S50A, G56F, A57T
VL: B9 VL
B11: Ab20: monoclonal antibody; VH SEQ ID NO: 251, VL SEQ ID NO: 241 (antibody, V domains shown)
VH: B9 VH with R30S, N31A, S35T, S50A, A57V, F106Y
VL: B9 VL
B12: Ab19: monoclonal antibody; VH SEQ ID NO: 250, VL SEQ ID NO: 241 (antibody, V domains shown)
VH: QVQLVESGGGVVQPGRSLRLSCAASGFTFSSFAMTWVRQAPGKGLEWVSAISGSGAATYFADSVKGRFTISRDNSKNTLYLQMNSLRAEDTAVYYCARVSSGHWDFDEWGQGTLVTVSS
VL: B9 VL

Legend:
Test in all cases: Octet (Biolayer Interferometry) in vitro kinetic binding
Conditions in all cases: in M
[1] = target: T1, recombinant human LTBP1-proTGFβ1 complex (Homo sapiens, UniProt P01137)
T1 construct: made in house; host or cells: Expi293F cells, transient co-transfection
T1 sequence (P01137 30-390): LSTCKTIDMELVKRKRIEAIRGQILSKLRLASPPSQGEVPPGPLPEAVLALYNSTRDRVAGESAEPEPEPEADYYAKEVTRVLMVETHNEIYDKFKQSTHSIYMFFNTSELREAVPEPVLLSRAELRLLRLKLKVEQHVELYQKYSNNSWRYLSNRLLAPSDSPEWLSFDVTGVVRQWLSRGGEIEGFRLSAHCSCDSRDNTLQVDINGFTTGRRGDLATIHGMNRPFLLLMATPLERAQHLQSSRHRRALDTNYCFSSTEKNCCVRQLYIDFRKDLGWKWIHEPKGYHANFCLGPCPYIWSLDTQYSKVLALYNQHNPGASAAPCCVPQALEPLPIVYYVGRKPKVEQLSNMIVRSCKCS
T1 sequence (Q14766 873-1507 partner): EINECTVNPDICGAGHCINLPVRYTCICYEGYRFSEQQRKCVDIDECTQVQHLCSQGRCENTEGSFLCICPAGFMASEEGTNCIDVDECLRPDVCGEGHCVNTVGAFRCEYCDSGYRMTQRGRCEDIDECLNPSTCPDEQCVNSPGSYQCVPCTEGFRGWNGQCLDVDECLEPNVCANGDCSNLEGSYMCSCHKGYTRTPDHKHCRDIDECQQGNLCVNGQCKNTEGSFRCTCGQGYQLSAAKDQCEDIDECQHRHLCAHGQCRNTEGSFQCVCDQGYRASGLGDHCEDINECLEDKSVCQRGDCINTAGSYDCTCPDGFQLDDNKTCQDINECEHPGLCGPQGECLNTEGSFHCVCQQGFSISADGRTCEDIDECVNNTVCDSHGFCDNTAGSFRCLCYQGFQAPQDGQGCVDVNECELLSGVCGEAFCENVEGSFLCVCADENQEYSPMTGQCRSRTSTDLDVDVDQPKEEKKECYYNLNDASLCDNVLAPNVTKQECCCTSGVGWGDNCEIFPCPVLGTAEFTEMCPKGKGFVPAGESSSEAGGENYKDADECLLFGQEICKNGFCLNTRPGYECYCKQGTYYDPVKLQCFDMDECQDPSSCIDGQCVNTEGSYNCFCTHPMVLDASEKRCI
From the text: (§1) Biolayer Interferometry (BLI):BLI is a label-free technology for optically measuring biomolecular interactions, e.g., between a ligand immobilized on the biosensor tip surface and an analyte in solution. BLI provides the ability to monitor binding specificity, rates of association and dissociation, or concentration, with precision and accuracy. BLI platform instruments are commercially available, for example, from ForteBio and are commonly referred to as the Octet® System.
(§2) BLI-based binding assays are widely used in the art for measuring affinities and kinetics of antibodies to antigens. It is a label-free technology in which biomolecular interactions are analyzed on the basis of optical interference. One of the proteins, for example, an antibody being tested, can be immobilized on the biosensor tip. When the other protein in solution, for example, an antigen, becomes bound to the immobilized antibody, it causes a shift in the interference pattern, which can be measured in real-time. This allows the monitoring of binding specificity, rates of association and dissociation, as well as concentration dependency. […] Due to its ease of use and fast results, BLI-based assays such as the Octet® system (available from ForteBio/Molecular Devices, Fremont Calif.), are particularly convenient when used as an initial screening method to identify and separate a pool of “binders” from a pool of “non-binders” or “weak binders” in the screening process.
(§3) Table 8 below provides non-limiting examples of high-affinity, context-independent proTGFβ1 antibodies encompassed by the present invention. The table provides representative results from in vitro binding assays, as measured by Octet®.
(§4) Column (A) of the table lists monoclonal antibodies with discrete amino acid sequences. […] Columns (B), (D), (E) and (F) provide affinities of each of the listed antibodies, measured in KD. […] Average KD values of (B) and (C) are shown in the corresponding column (D), which collectively represents affinities of the antibodies to ECM- or matrix-associated proTGFβ1 complexes. Similarly, Average KD values of (E) and (F) are shown in the corresponding column (G), which collectively represents affinities of the antibodies to cell-surface or cell-associated proTGFβ1 complexes. Finally, relative ratios between the average KD values from columns (D) and (G) are expressed as “fold bias” in column (H). Thus, the greater the number of column (H) is, the greater bias exists for the particular antibody, when comparing binding preferences of the antibody for matrix-associated complexes and cell-surface complexes. This is one way of quantitatively representing and comparing inherent bias of antibodies to their target complexes. Such analyses may be useful in guiding the selection process for a candidate antibody for particular therapeutic use.
(§5) In some embodiments, the binding affinity of an antibody, or antigen binding portion thereof, to an antigen (e.g., protein complex), such as presenting molecule-proTGFβ1 complexes, is determined using an Octet assay. In some embodiments, an Octet assay is an assay that determines one or more a kinetic parameters indicative of binding between an antibody and antigen. In some embodiments, an Octet® system (ForteBio, Menlo Park, Calif.) is used to determine the binding affinity of an antibody, or antigen binding portion thereof, to presenting molecule-proTGFβ1 complexes. For example, binding affinities of antibodies may be determined using the fortéBio Octet QKe dip and read label free assay system utilizing bio-layer interferometry. In some embodiments, antigens are immobilized to biosensors (e.g., streptavidin-coated biosensors) and the antibodies and complexes (e.g., biotinylated presenting molecule-proTGFβ1 complexes) are presented in solution at high concentration ([…]) to measure binding interactions. […]

[2] = target: T2, recombinant human LTBP3-proTGFβ1 complex (Homo sapiens, UniProt P01137)
T2 construct: made in house; host or cells: Expi293F cells, transient co-transfection
T2 sequence (P01137 30-390): as the sequence (P01137 30-390) above
T2 sequence (Q9NS15 866-1039 partner limits assumed): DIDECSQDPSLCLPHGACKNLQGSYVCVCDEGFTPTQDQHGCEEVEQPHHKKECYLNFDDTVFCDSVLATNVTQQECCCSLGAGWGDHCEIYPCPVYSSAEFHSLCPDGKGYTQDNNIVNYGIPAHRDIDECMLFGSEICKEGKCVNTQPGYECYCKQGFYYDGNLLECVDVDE
From the text: as §1, §2, §3, §4, §5

[3] = target: T3, recombinant human GARP-proTGFβ1 complex (Homo sapiens, UniProt P01137)
T3 construct: made in house
T3 sequence (P01137 30-390): as the sequence (P01137 30-390) above
T3 sequence (Q14392 20-627 partner limits assumed): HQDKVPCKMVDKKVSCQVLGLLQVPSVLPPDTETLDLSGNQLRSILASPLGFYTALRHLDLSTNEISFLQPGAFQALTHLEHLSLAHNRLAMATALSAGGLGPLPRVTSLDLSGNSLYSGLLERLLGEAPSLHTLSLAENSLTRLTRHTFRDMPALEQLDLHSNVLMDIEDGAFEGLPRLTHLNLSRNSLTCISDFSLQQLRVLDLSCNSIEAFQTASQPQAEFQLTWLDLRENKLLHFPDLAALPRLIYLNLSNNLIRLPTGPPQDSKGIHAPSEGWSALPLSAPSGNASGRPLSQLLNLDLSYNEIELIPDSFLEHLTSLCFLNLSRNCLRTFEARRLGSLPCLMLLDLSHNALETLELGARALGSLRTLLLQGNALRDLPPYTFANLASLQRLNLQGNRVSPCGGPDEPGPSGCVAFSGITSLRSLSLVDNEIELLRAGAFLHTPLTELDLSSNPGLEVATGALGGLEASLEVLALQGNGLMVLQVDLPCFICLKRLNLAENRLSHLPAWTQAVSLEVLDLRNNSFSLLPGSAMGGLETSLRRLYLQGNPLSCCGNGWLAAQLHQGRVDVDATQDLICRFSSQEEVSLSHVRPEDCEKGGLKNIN
From the text: as §1, §2, §3, §4, §5

[4] = target: T4, recombinant human LRRC33-proTGFβ1 complex (Homo sapiens, UniProt P01137)
T4 construct: made in house
T4 sequence (P01137 30-390): as the sequence (P01137 30-390) above
T4 sequence (Q86YC3 19-650 partner limits assumed): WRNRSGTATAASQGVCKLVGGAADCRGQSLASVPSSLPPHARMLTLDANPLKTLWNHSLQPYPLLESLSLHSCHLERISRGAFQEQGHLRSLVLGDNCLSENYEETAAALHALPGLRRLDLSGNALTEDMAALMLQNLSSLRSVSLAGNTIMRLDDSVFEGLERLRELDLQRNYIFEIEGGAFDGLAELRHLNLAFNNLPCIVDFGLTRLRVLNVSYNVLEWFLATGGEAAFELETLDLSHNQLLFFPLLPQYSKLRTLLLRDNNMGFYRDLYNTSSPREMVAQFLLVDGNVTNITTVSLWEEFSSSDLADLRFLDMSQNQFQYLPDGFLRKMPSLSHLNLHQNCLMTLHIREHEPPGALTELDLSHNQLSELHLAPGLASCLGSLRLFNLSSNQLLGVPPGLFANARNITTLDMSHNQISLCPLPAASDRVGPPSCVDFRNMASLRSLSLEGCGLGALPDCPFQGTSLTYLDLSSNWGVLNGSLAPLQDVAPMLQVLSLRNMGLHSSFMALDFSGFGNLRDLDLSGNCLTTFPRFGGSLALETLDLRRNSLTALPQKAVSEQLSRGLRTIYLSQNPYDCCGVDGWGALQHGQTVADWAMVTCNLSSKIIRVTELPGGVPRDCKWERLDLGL
From the text: as §1, §2, §3, §4, §5

| Molecule | (B) hLTBP1, Matrix-associated proTGFb1 (KD) [1] | (C) hLTBP3, Matrix-associated proTGFb1 (KD) [2] | (E) hGARP, Cell-associated proTGFb1 (KD) [3] | (F) hLRRC33, Cell-associated proTGFb1 (KD) [4] |
| --- | --- | --- | --- | --- |
| B1 | 3.18E−10 | 3.29E−10 | 9.74E−10 | 4.15E−10 |
| B2 | 2.46E−10 | 1.98E−10 | 6.65E−10 | 4.10E−10 |
| B3 | 3.32E−10 | 2.61E−10 | 8.33E−10 | 5.35E−10 |
| B4 | 2.69E−10 | 2.15E−10 | 4.96E−10 | 6.98E−10 |
| B5 | 2.36E−10 | 1.81E−10 | 5.81E−10 | 4.10E−10 |
| B6 | 1.89E−10 | 1.21E−10 | 3.07E−10 | 3.02E−10 |
| B7 | 1.79E−10 | 1.11E−10 | 2.65E−10 | 3.39E−10 |
| B8 | 2.21E−10 | 1.73E−10 | 6.25E−10 | 3.60E−10 |
| B9 | 1.67E−10 | 1.54E−10 | 8.42E−10 | 5.55E−10 |
| B10 | 1.57E−10 | 1.83E−10 | 7.01E−09 | 7.75E−10 |
| B11 | 1.92E−10 | 1.31E−10 | 8.84E−10 | 5.45E−10 |
| B12 | 1.89E−10 | 1.56E−10 | 1.12E−08 | 6.92E−10 |
